Data as given in paper PMC7641504.

Target: double mutant (E87C, C312T) AmtB protein complex from E. coli (E. coli) (UniProt P69681)
Assay: native MS

- stoichiometry N: 3
Substance: double mutant (E87C, C312T) AmtB protein complex from E. coli (from UniProt P69681 23-428) (natural protein)
